Results reported in patent US20150150156, “METHODS AND COMPOSITIONS FOR REDUCING GENE EXPRESSION IN PLANTS” (The Regents of the University of California, published 2015).

T1: SUVR5 zinc finger domain (aa 720-866) (Arabidopsis thaliana, UniProt O64827 SEQ:1-147)
T1 sequence: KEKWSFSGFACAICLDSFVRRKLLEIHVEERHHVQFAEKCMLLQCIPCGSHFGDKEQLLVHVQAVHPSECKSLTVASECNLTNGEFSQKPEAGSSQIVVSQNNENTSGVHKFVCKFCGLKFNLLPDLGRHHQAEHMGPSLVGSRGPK

B1: unspecific probe (dsDNA)
DNA 1: ACCAAGCAACACACCCCGT
DNA 2: ACGGGGTGTGTTGCTTGGT
B2: specific probe (dsDNA)
DNA 1: GTAGAATACTAGTTGATAAC
DNA 2: GTTATCAACTAGTATTCTAC

Legend:
[1] = biological target: T1, SUVR5 zinc finger domain (aa 720-866); assay: EMSA; specificity control; specificity stated as confirmed by EMSA, gel only in figure; conditions: tags: GST fusion (pDEST15)
[2] = biological target: T1, SUVR5 zinc finger domain (aa 720-866); assay: EMSA; 100, 250, 500 ng protein; 12% glycerol, 20 mM Tris-HCl pH 7.5, 50 mM KCl, 1 mM MgCl2, 1 mM DTT; conditions: tags: GST fusion (pDEST15)

| Binder | binding result [1] | binding result [2] |
| --- | --- | --- |
| B1 | no binding |  |
| B2 |  | binds |
